The source of these data is the supplement of paper PMC5998384.

Series [1] has as its system HeLa Kyoto. Nature of the series: solubility in G1/S (NP-40 vs SDS abundance) (log2 ratio); higher = more soluble. Conditions: cell cycle stage: G1/S.
Series [2] has as its system HeLa Kyoto. Nature of the series: melting temperature (median over replicates), in situ; higher = more thermally stable.
Series [3] has as its system HeLa Kyoto. Nature of the series: solubility change mitosis vs G1/S (difference of NP-40 vs SDS log2 ratios) (log2 ratio difference); higher = more soluble in mitosis.
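Wherever melting temperature (median over replicates), in situ is given: HeLa Kyoto cells synchronized by double thymidine or nocodazole block, proteins quantified by TMT10plex mass spectrometry, three independent biological replicates.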
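Wherever solubility change mitosis vs G1/S (difference of NP-40 vs SDS log2 ratios) is given: synchronized HeLa Kyoto cells (double thymidine block for G1/S, nocodazole release for mitosis), protein amounts in NP-40 versus SDS lysates quantified by mass spectrometry, three biological replicates.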
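Wherever solubility in G1/S (NP-40 vs SDS abundance) is given: HeLa Kyoto cells arrested at G1/S by double thymidine block, proteins quantified by TMT10plex mass spectrometry in mild NP-40 versus SDS extracts, three biological replicates.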

“MLRREARLRREYLYRKAREEAQRSAQERKERLRRALEENRLIPTELRREALALQGSLEFDDAGGEGVTSHVDDEYRWAGVEDPKVMITTSRDPSSRLKMFAKELKLVFPGAQRMNRGRHEVGALVRACKANGVTDLLVVHEHRGTPVGLIVSHLPFGPTAYFTLCNVVMRHDIPDLGTMSEAKPHLITHGFSSRLGKRVSDILRYLFPVPKDDSHRVITFANQDDYISFRHHVYKKTDHRNVELTEVGPRFELKLYMIRLGTLEQEATADVEWRWHPYTNTARKRVFLSTE [IMP4]”: in the series with HeLa Kyoto [1], the “solubility in G1/S (log2)” value was -1.9. For the same sequence, in the series with HeLa Kyoto [2] (cell cycle stage: mitosis), the melting temperature amounted to 51.4 °C. The “solubility change mitosis (log2)” value with HeLa Kyoto [3] is 0.914.

Take “MMATPNQTACNAESPVALEEAKTSGAPGSPQTPPERHDSGGSLPLTPRMESHSEDEDLAGAVGGLGWNSRSPRTQSPGGCSAEAVLARKKHRRRPSKRKRHWRPYLELSWAEKQQRDERQSQRASRVREEMFAKGQPVAPYNTTQFLMNDRDPEEPNLDVPHGISHPGSSGESEAGDSDGRGRAHGEFQRKDFSETYERFHTESLQGRSKQELVRDYLELEKRLSQAEEETRRLQQLQACTGQQSCRQVEELAAEVQRLRTENQRLRQENQMWNREGCRCDEEPGT [HEXIM2]”: in the series with HeLa Kyoto [1], the “solubility in G1/S (log2)” value stood at 0.492. For the same sequence, the melting temperature is 54.6 °C in the series with HeLa Kyoto [2] (cell cycle stage: G1/S) and 53.4 °C with HeLa Kyoto [2] (cell cycle stage: mitosis). Besides, the “solubility change mitosis (log2)” value in the series with HeLa Kyoto [3] worked out at 0.139.

Regarding “MNRLPDDYDPYAVEEPSDEEPALSSSEDEVDVLLHGTPDQKRKLIRECLTGESESSSEDEFEKEMEAELNSTMKTMEDKLSSLGTGSSSGNGKVATAPTRYYDDIYFDSDSEDEDRAVQVTKKKKKKQHKIPTNDELLYDPEKDNRDQAWVDAQRRGYHGLGPQRSRQQQPVPNSDAVLNCPACMTTLCLDCQRHESYKTQYRAMFVMNCSINKEEVLRYKASENRKKRRVHKKMRSNREDAAEKAETDVEEIYHPVMCTECSTEVAVYDKDEVFHFFNVLASHS [EAPP]”, the “solubility in G1/S (log2)” value in the series on HeLa Kyoto [1] worked out at 0.159. The same sequence yielded a melting temperature in the series with HeLa Kyoto [2] (cell cycle stage: G1/S) of 50.3 °C. In addition, the “solubility change mitosis (log2)” value in the series with HeLa Kyoto [3] is 0.14.

With “MNVALQELGAGSNMVEYKRATLRDEDAPETPVEGGASPDAMEVGKGASPFSPGPSPGMTPGTPRSSGLFWRVTCPHLRSISGLCSRTMVGFQKGTRQLLGSRTQLELVLAGASLLLAALLLGCLVALGVQYHRDPSHSTCLTEACIRVAGKILESLDRGVSPCEDFYQFSCGGWIRRNPLPDGRSRWNTFNSLWDQNQAILKHLLENTTFNSSSEAEQKTQRFYLSCLQVERIEELGAQPLRDLIEKIGGWNITGPWDQDNFMEVLKAVAGTYRATPFFTVYISADSKSSNSNVIQVDQSGLFLPSRDYYLNRTANEKVLTAYLDYMEELGMLLGGRPTSTREQMQQVLELEIQLANITVPQDQRRDEEKIYHKMSISELQALAPSMDWLEFLSFLLSPLELSDSEPVVVYGMDYLQQVSELINRTEPSILNNYLIWNLVQKTTSSLDRRFESAQEKLLETLYGTKKSCVPRWQTCISNTDDALGFALGSLFVKATFDRQSKEIAEGMISEIRTAFEEALGQLVWMDEKTRQAAKEKADAIYDMIGFPDFILEPKELDDVYDGYEISEDSFFQNMLNLYNFSAKVMADQLRKPPSRDQWSMTPQTVNAYYLPTKNEIVFPAGILQAPFYARNHPKALNFGGIGVVMGHELTHAFDDQGREYDKEGNLRPWWQNESLAAFRNHTACMEEQYNQYQVNGERLNGRQTLGENIADNGGLKAAYNAYKAWLRKHGEEQQLPAVGLTNHQLFFVGFAQVWCSVRTPESSHEGLVTDPHSPARFRVLGTLSNSRDFLRHFGCPVGSPMNPGQLCEVW [ECE2]”, the “solubility in G1/S (log2)” value in the series on HeLa Kyoto [1] came out at 0.0962. This sequence showed a melting temperature in the series with HeLa Kyoto [2] (cell cycle stage: mitosis) of 50.7 °C. Moreover, the “solubility change mitosis (log2)” value in the series on HeLa Kyoto [3] is -0.189.

As for “MPNFCAAPNCTRKSTQSDLAFFRFPRDPARCQKWVENCRRADLEDKTPDQLNKHYRLCAKHFETSMICRTSPYRTVLRDNAIPTIFDLTSHLNNPHSRHRKRIKELSEDEIRTLKQKKIDETSEQEQKHKETNNSNAQNPSEEEGEGQDEDILPLTLEEKENKEYLKSLFEILILMGKQNIPLDGHEADEIPEGLFTPDNFQALLECRINSGEEVLRKRFETTAVNTLFCSKTQQRQMLEICESCIREETLREVRDSHFFSIITDDVVDIAGEEHLPVLVRFVDESHNLREEFIGFLPYEADAEILAVKFHTMITEKWGLNMEYCRGQAYIVSSGFSSKMKVVASRLLEKYPQAIYTLCSSCALNMWLAKSVPVMGVSVALGTIEEVCSFFHRSPQLLLELDNVISVLFQNSKERGKELKEICHSQWTGRHDAFEILVELLQALVLCLDGINSDTNIRWNNYIAGRAFVLCSAVSDFDFIVTIVVLKNVLSFTRAFGKNLQGQTSDVFFAAGSLTAVLHSLNEVMENIEVYHEFWFEEATNLATKLDIQMKLPGKFRRAHQGNLESQLTSESYYKETLSVPTVEHIIQELKDIFSEQHLKALKCLSLVPSVMGQLKFNTSEEHHADMYRSDLPNPDTLSAELHCWRIKWKHRGKDIELPSTIYEALHLPDIKFFPNVYALLKVLCILPVMKVENERYENGRKRLKAYLRNTLTDQRSSNLALLNINFDIKHDLDLMVDTYIKLYTSKSELPTDNSETVENT [PRKRIR]”, in the series with HeLa Kyoto [1], the “solubility in G1/S (log2)” value was found to be 0.246. Moreover, the melting temperature with HeLa Kyoto [2] (cell cycle stage: G1/S) was found to be 51.3 °C; in the series on HeLa Kyoto [2] (cell cycle stage: mitosis), 50.9 °C. Further, the “solubility change mitosis (log2)” value in the series on HeLa Kyoto [3] was -0.0658.

“MPPERRRRMKLDRRTGAKPKRKPGMRPDWKAGAGPGGPPQKPAPSSQRKPPARPSAAAAAIAVAAAEEERRLRQRNRLRLEEDKPAVERCLEELVFGDVENDEDALLRRLRGPRVQEHEDSGDSEVENEAKGNFPPQKKPVWVDEEDEDEEMVDMMNNRFRKDMMKNASESKLSKDNLKKRLKEEFQHAMGGVPAWAETTKRKTSSDDESEEDEDDLLQRTGNFISTSTSLPRGILKMKNCQHANAERPTVARISSVQFHPGAQIVMVAGLDNAVSLFQVDGKTNPKIQSIYLERFPIFKACFSANGEEVLATSTHSKVLYVYDMLAGKLIPVHQVRGLKEKIVRSFEVSPDGSFLLINGIAGYLHLLAMKTKELIGSMKINGRVAASTFSSDSKKVYASSGDGEVYVWDVNSRKCLNRFVDEGSLYGLSIATSRNGQYVACGSNCGVVNIYNQDSCLQETNPKPIKAIMNLVTGVTSLTFNPTTEILAIASEKMKEAVRLVHLPSCTVFSNFPVIKNKNISHVHTMDFSPRSGYFALGNEKGKALMYRLHHYSDF [UTP18]”: the “solubility in G1/S (log2)” value in the series with HeLa Kyoto [1] was -2.03. In the series on HeLa Kyoto [2] (cell cycle stage: mitosis), this sequence came in with a melting temperature of 52.7 °C. Moreover, the “solubility change mitosis (log2)” value in the series with HeLa Kyoto [3] turned out to be 0.81.
